# Key:
# [1] = tested on: patients with T2DM; assay: HbA1c change from baseline to Week 30 (Example 3, with or without metformin); format: in vivo, human
# Procedure: For the eligibility and efficacy assessments of the study, HbA1c is measured by a certified level I “National Glycohemoglobin Standardization Program” (NGSP) central laboratory.
# Methodology: This was an open-label, 1:1 randomized, active-controlled, 2-arm, 30-week treatment duration, parallel-group multinational and multicenter study. The randomization was stratified by value of HbA1cat Visit 5 (Week −1) (<8%, ≥8%) and metformin use at screening (Y, N).
# Diagnosis and criteria for inclusion: Inclusion criteria: Patients with type 2 diabetes mellitus diagnosed for at least 1 year and inadequately controlled on their current antidiabetic treatment. Patients had to be treated with basal insulin for at least 6 months at a stable daily dose of 15 to 40 U, alone or combined with 1 or 2 oral anti-diabetic drugs ((metformin, an SU, a glinide, a DPP-4 inhibitor, or a SGLT-2 inhibitor) at a stable dose for at least 3 months. Key exclusion criteria for randomization (at the end of the run-in phase): HbA1c<7% or >10% at Visit 5 (week −1); mean fasting SMPG >140 mg/dL (7.8 mmol/L) for the 7 days before the randomization Visit (Visit 6); average insulin glargine daily dose <20 U or >50 U calculated for the last 3 days before Visit 6.
# Efficacy analysis was based on modified intent-to-treat (mITT) population using efficacy assessment collected during the study, including those obtained after IMP discontinuation or introduction of rescue therapy. The mITT population consisted of all randomized patients who had both a baseline assessment and at least one post-baseline assessment of any primary or secondary efficacy variables.
# The primary efficacy endpoint was analyzed using a mixed-effect model with repeated measures (MMRM). The MMRM model included the treatment groups, randomization strata, visit, treatment-by-visit interaction, and country as fixed-effect factors, and the baseline HbA1c-by-visit interaction as covariate.
# [2] = tested on: patients with T2DM; assay: Body weight change from baseline to Week 30 (Example 3); format: in vivo, human
# Text: Body weight should be obtained with the patient wearing undergarments or very light clothing and no shoes, and with an empty bladder. The same scale should be used throughout the study, and calibrated on a regular basis as recommended by the manufacturer.
# (§1) Similar MMRM method or analysis of covariance (ANCOVA) was applied on continuous secondary efficacy endpoints and the Cochran-Mantei-Haenszel method stratified by randomization strata was applied for categorical efficacy endpoints.
# [3] = tested on: patients with Type 2 diabetes mellitus (T2DM); assay: Patients with HbA1c ≤6.5% or <7% at Week 30 (Example 2); format: in vivo, human; settings: mITT population
# Text: Efficacy analysis was based on modified intent-to-treat (mITT) population using efficacy assessments collected during the study, including those obtained after IMP discontinuation or introduction of rescue therapy. The mITT population consisted of all randomized patients who had both a baseline assessment and at least one post-baseline assessment of any primary or secondary efficacy variables.
# Similar MMRM method or ANCOVA was applied on continuous secondary efficacy endpoints and Cochran-Mantei-Haenszel method stratified by randomization strata was applied on categorical efficacy endpoints.
# [4] = tested on: patients with T2DM; assay: Patients with HbA1c ≤6.5% or <7% at Week 30 (Example 3); format: in vivo, human
# Text: as §1
# [5] = tested on: patients with Type 2 diabetes mellitus (T2DM); assay: Pancreatic events adjudicated by PSAC (Example 2)
# [6] = tested on: patients with Type 2 diabetes mellitus (T2DM); assay: Patient disposition / treatment discontinuation (Example 2); format: in vivo; settings: randomized population
# [7] = tested on: patients with T2DM; assay: Fasting plasma glucose change from baseline to Week 30 (Example 3); format: in vivo, human
# Procedure: FPG is measured at a central laboratory. At V5 and V21, FPG will be part of the standardized meal test.
# as §1
# [8] = tested on: patients with T2DM; assay: Symptomatic hypoglycemia (Example 3)
# [9] = tested on: patients with T2DM; assay: Patient disposition / treatment discontinuation (Example 3); format: in vivo; settings: Randomized population; percentages of patients randomized
# Text: The discrepancy between the strata assigned by IVRS/IWRS and the information reported on electronic Case Report Form (eCRF) will be listed for all randomized patients, • Patients who have completed the 30-week treatment period, • Patients who discontinued the IMP during the 30-week treatment period, and the reasons for treatment discontinuation.
# [10] = tested on: patients with Type 2 diabetes mellitus (T2DM); assay: Increased calcitonin reported on AE form (Example 2); set-up: Patients with TEAE of increased calcitonin: dose or concentration left out as unconfirmed
# [11] = tested on: patients with Type 2 diabetes mellitus (T2DM); assay: Major cardiovascular events adjudicated by CAC (Example 2); settings: on-treatment period
# [12] = on-treatment period, Safety population
# [13] = plasma glucose <60 mg/dL [[…]], on-treatment period, Safety population
# [14] = plasma glucose ≤70 mg/dL [[…]], on-treatment period, Safety population
substance,measurement,setting,value
Gly(A21)-Arg(B31)-Arg(B32)-human insulin [Insulin Glargine],Mean HbA1c level at Week 30,[1]; Example 3,7.5%
same,"HbA1c change from baseline to Week 30, LS Mean (SE)","[1]; MMRM, mITT population",−0.62 (0.055) %
same,"HbA1c at Week 30, Mean (SD)",[1]; mITT population,7.48 (0.91) %
same,"HbA1c at Week 30, Median",[1]; mITT population,7.40%
same,"Body weight, LS mean change from baseline to Week 30",[2]; Example 3,+0.70 kg
same,"Body weight change from baseline to Week 30, LS Mean (SB)","[2]; MMRM, mITT population",0.70 (0.178) kg
same,"Body weight at Week 30, Mean (SD)",[2]; mITT population,87.96 (15.08) kg
same,"Body weight at Week 30, Median",[2]; mITT population,85.90 kg
same,% of patients with HbA1c ≤[…] at Week 30,[3],(39.5%)
same,Number of patients with HbA1c ≤[…] at Week 30,[3],184 patients
same,% of patients with HbA1c ≤[…] at Week 30,[3]; listed as insulin glargine,39.5%
same,Patients reaching HbA1c<7.0% at Week 30,[4]; Example 3,29.6%
same,Patients reaching HbA1c≤[…] at Week 30,[4]; Example 3,14.2%
same,Patients with HbA1c <7% at Week 30,[4]; mITT population,108 (29.6%) Number (%)
same,Patients with HbA1c ≤[…] at Week 30,[4]; mITT population,52 (14.2%) Number (%)
same,Cases of pancreatic cancer,[5]; Example 2,One
same,Pancreatic events positively adjudicated by PSAC: Acute on chronic pancreatitis,[5]; [12],0 Number (%)
same,Pancreatic events positively adjudicated by PSAC: Acute pancreatitis,[5]; [12],0 Number (%)
same,Pancreatic events positively adjudicated by PSAC: Chronic pancreatitis,[5]; [12],0 Number (%)
same,Pancreatic events positively adjudicated by PSAC: Unknown pancreatitis,[5]; [12],0 Number (%)
same,Patients with pancreatic events positively adjudicated by PSAC: Any with “Yes” for pancreatitis by PSAC,[5]; [12],0 Number (%)
same,"Status at last study contact: Dead, %",[6],0.9%
same,"Status at last study contact: Dead, number of patients",[6],4 patients
same,"Study treatment discontinuation due to adverse event, %",[6],1.9%
same,"Study treatment discontinuation due to adverse event, number of patients",[6],9 patients
same,"Study treatment discontinuation due to lack of efficacy, number of patients",[6],0 patients
same,"FPG, LS mean change from baseline to Week 30",[7]; Example 3,-0.46 mmol/L
same,"Fasting plasma glucose change from baseline to Week 30, LS Mean","[7]; MMRM, mITT population",-0.46 mmol/L
same,"Fasting plasma glucose at Week 30, Mean",[7]; mITT population,6.69 mmol/L
same,"Fasting plasma glucose at Week 30, Median",[7]; mITT population,6.30 mmol/L
same,Documented symptomatic hypoglycemia event rate per patient-year,[8]; Example 3,4.22 per patient-year
same,Patients with at least one event of documented (PG ≤70 mg/dL) symptomatic hypoglycemia,[8]; Example 3,42.5%
same,"Severe symptomatic hypoglycemia, % of patients",[8]; Example 3,0.3%
same,"Severe symptomatic hypoglycemia, number of events",[8]; Example 3,1 events
same,"Severe symptomatic hypoglycemia, number of patients",[8]; Example 3,1 patients
same,Probable symptomatic hypoglycaemia: Number of events,[8]; [12],29
same,Probable symptomatic hypoglycaemia: Number of events per patient year,[8]; [12],0.14
same,Probable symptomatic hypoglycaemia: Number of patients with events per patient year,[8]; [12],0.10
same,"Probable symptomatic hypoglycaemia: patients with events, %",[8]; [12],(5.5%)
same,Severe symptomatic hypoglycaemia: Number of events,[8]; [12],1
same,Severe symptomatic hypoglycaemia: Number of events per patient year,[8]; [12],<0.01
same,Severe symptomatic hypoglycaemia: Number of patients with events per patient year,[8]; [12],<0.01
same,"Severe symptomatic hypoglycaemia: patients with events, %",[8]; [12],(0.3%)
same,Symptomatic hypoglycemia: Number of events,[8]; [12],910
same,Symptomatic hypoglycemia: Number of events per patient year,[8]; [12],4.36
same,Symptomatic hypoglycemia: Number of patients with events per patient year,[8]; [12],0.77
same,"Symptomatic hypoglycemia: patients with events, %",[8]; [12],(44.1%)
same,Documented symptomatic hypoglycaemia: Number of events,[8]; [13],235
same,Documented symptomatic hypoglycaemia: Number of events per patient year,[8]; [13],1.13
same,Documented symptomatic hypoglycaemia: Number of patients with events per patient year,[8]; [13],0.40
same,"Documented symptomatic hypoglycaemia: patients with events, %",[8]; [13],(22.7%)
same,Documented symptomatic hypoglycaemia: Number of events,[8]; [14],880
same,Documented symptomatic hypoglycaemia: Number of events per patient year,[8]; [14],4.22
same,Documented symptomatic hypoglycaemia: Number of patients with events per patient year,[8]; [14],0.74
same,"Documented symptomatic hypoglycaemia: patients with events, %",[8]; [14],(42.5%)
same,Reason for study treatment discontinuation: Adverse event,[9],3 (0.8%)
same,Status at last study contact: Dead,[9],2 (0.5%)
same,Patients with TEAE of increased calcitonin,[10]; Example 2,One
same,Events reported on the AE form for increased calcitonin (≥20 ng/L): Blood calcitonin increased,[10]; [12],1 (0.2%) n (%)
same,Patients with events reported on the AE form for increased calcitonin (≥20 ng/L): Any,[10]; [12],1 (0.2%) n (%)
same,"TEAEs adjudicated as major cardiovascular events by CAC, % of patients",[11]; Example 2,1.5%
same,"TEAEs adjudicated as major cardiovascular events by CAC, number of patients",[11]; Example 2,7 patients
same,Major cardiovascular events by CAC: Cardiovascular death,[11]; Safety population,2 (0.4%) n(%)
same,Major cardiovascular events by CAC: Coronary revascularization procedure,[11]; Safety population,1 (0.2%) n(%)
same,Major cardiovascular events by CAC: Hospitalization for heart failure,[11]; Safety population,2 (0.4%) n(%)
same,Major cardiovascular events by CAC: Hospitalization for unstable angina,[11]; Safety population,1 (0.2%) n(%)
same,Major cardiovascular events by CAC: Non-fatal myocardial infarction,[11]; Safety population,0 n(%)
same,Major cardiovascular events by CAC: Non-fatal stroke,[11]; Safety population,1 (0.2%) n(%)
same,Patients with events adjudicated as major cardiovascular events by CAC: Any,[11]; Safety population,7 (1.5%) n(%)

# Reference: US12186374B2 (Sanofi-Aventis Deutschland GmbH, priority 2014, dated 2025)
